In patent US20160102323, “A LAGLIDADG HOMING ENDONUCLEASE CLEAVING THE C-C CHEMOKINE RECEPTOR TYPE-5 (CCR5) GENE AND USES THEREOF” (CELLECTIS, published 2016):

What was measured:
Assay in all cases: flow; yeast surface display titration; unit as printed (uM)
[1] = target: T1, I-OnuI (wild type) (Ophiostoma novo-ulmi); conditions: label: fluorescent dye
T1 chain: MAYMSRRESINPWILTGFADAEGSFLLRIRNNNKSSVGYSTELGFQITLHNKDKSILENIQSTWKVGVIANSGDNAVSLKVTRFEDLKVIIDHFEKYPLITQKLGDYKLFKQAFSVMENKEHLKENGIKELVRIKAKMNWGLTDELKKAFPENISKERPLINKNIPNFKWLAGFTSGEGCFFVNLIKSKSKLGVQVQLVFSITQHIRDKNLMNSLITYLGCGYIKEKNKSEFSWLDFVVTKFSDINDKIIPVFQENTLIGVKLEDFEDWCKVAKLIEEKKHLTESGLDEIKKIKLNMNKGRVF
Protocol: (§1) The LHEs containing the engineered DNA recognition interfaces for the CCR5_S02 (SEQ ID NO: 3) and CCR5_S08 (SEQ ID NO: 5) targets were tested for affinity, specificity, and toxicity characteristics. Affinity was tested by independently incubating yeast displaying the CCR5_S02_1F5 variant, (SEQ ID NO: 09 encoding SEQ ID NO: 10), and the CCR5_S08_1B6 variant (SEQ ID NO: 11 encoding SEQ ID NO: 12), with DNA substrates containing their target sequences at various concentrations. See FIG. 4 showing the affinity properties of these two variants relative to the wild-type I-OnuI protein. […] Specificity was tested by analyzing the relative ability of each LHE to cleave target sequences containing each of the three alternate DNA base pairs at each position along the substrate. See FIG. 5 illustrating the specificity profile of the CCR5_S02_1F5 and CCR5_S08_1B6 variants. […] Toxicity was analyzed by in vitro transcribing each LHE into mRNA and transfecting primary human T cells by electroporation, followed by flow cytometry analysis of the survival of the cells relative to transfection with a control mRNA encoding a blue fluorescent protein (BFP). See FIG. 6 showing flow cytometry analysis of primary human T cells after treatment with the CCR5_S02_1F5 and CCR5_S08_1B6 variants.

[2] = target: T2, CCR5_S02_1F5 I-OnuI variant (artificial (I-OnuI derived)); conditions: label: Alexa Fluor 647 / biotin in cleavage assay
T2 chain: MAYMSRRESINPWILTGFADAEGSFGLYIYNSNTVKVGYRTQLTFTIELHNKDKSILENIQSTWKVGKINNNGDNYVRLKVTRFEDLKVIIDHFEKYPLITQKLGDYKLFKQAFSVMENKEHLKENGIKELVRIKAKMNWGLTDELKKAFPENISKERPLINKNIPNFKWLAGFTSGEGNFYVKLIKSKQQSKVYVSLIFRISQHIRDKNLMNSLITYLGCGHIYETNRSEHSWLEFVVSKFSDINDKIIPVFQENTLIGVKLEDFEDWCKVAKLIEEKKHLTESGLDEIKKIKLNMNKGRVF
Protocol: as §1

[3] = target: T3, CCR5_S08_1B6 I-OnuI variant (artificial (I-OnuI derived)); conditions: label: Alexa Fluor 647 / biotin in cleavage assay
T3 chain: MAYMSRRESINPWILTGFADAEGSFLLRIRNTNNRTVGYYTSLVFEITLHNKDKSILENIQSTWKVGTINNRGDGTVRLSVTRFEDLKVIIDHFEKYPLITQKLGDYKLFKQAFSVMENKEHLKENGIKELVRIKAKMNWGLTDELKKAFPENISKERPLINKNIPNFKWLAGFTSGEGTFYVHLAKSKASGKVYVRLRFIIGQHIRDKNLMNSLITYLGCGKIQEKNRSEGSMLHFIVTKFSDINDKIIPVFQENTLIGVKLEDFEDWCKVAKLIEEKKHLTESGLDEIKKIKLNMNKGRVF
Protocol: as §1

B1: I-OnuI native target (dsDNA)
DNA 1: TTTCCACTTATTCAACCTTTTA
DNA 2: TAAAAGGTTGAATAAGTGGAAA
How did the Kd [1] turn out when B1 was run?
The Kd was roughly 80 µM.

B2: CCR5_S02 target (dsDNA)
DNA 1: ATGAAGAAGATTCCAGAGAAGA
DNA 2: TCTTCTCTGGAATCTTCTTCAT
With B2 as the binder, how does the Kd [2] read?
The Kd was roughly 35 µM.

B3: CCR5_S08 target (dsDNA)
DNA 1: CTTCCAGGAATTCTTTGGCCTG
DNA 2: CAGGCCAAAGAATTCCTGGAAG
Which Kd [3] does the source give for B3 here?
The Kd was roughly 20 µM.
